Entries after “also recorded” stand apart in the source; their conditions may differ. Where two headings read alike, the source gives them in different places.
Experiments:
[1] = cited from earlier work
[2] = Phase 1b study (Example 10): bemarituzumab serum concentration / PK with CAPOX with or without nivolumab; type: in vivo, human; settings: for Cycle 1 Cmax (median) / Cycle 1 Ctrough (median) / Cycle 2 Cmax (median) / Cycle 2 Ctrough (median): serum, preliminary
From the text: The actual sample collection date and time (24-hour clock time) of each sample will be recorded.

[3] = Phase 1b study (Example 10): safety of bemarituzumab with CAPOX with or without nivolumab; type: in vivo, human; settings: cohort A (DL1 & DL2) and cohort C; based on the known bemarituzumab safety profile
[4] = Pharmacokinetics after intravenous administration in cynomolgus monkeys; type: in vivo
Description: (§1) The half-life was dose-dependent, ranging from 0.8 days at the lowest doses (1 to 1.5 mg/kg) to at least 8 days at the highest doses (100 to 150 mg/kg) tested in cynomolgus monkeys. […] Target-mediated clearance was saturable, marked by dose-proportional increases in exposure at doses exceeding this level when dosed at weekly intervals. […] As such, it is contemplated that in some embodiments, subjects treated with bemarituzumab are not pregnant.

[5] = Embryo-fetal development with prenatal and postnatal development study; type: in vivo; settings: all dose levels (5 to 100 mg/kg/doses)
Description: as §1

[6] = target: T1, FGFR2b (Homo sapiens, UniProt P21802); experiment: FGF ligand-stimulated FGFR2b phosphorylation and receptor level in cell culture; type: cell-based
T1 construct: in cell culture in FGFR2b overexpressing gastric and breast cancer cell lines; endogenous in cells
T1 sequence (P21802 22-822 isoform P21802-3 limits assumed): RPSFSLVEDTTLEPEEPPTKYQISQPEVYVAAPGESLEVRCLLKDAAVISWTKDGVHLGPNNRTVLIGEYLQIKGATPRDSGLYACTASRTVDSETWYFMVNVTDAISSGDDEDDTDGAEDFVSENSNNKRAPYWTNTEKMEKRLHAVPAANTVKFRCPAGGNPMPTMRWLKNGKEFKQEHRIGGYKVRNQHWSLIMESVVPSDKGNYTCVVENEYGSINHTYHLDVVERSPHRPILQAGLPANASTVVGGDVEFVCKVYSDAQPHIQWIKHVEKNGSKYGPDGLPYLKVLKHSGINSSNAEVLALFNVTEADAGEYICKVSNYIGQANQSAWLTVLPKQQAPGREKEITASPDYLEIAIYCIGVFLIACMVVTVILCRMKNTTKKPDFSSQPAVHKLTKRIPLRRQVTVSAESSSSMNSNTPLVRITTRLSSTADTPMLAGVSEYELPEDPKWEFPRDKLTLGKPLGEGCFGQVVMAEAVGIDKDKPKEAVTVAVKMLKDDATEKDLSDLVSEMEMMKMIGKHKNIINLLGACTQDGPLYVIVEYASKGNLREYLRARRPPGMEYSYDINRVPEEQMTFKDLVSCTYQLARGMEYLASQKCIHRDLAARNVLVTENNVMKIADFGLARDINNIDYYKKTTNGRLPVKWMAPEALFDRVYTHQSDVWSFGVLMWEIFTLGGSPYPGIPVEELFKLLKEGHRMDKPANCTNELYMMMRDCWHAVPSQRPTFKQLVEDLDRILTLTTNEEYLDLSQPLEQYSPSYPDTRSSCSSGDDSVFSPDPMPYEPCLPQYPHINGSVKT

[7] = tested on: FGFR2b overexpressing gastric and breast cancer cell lines; experiment: Cell proliferation in cell culture; type: cell-based; settings: FGF ligand-stimulated
[8] = tested on: FGFR2b overexpressing gastric and breast xenograft models; experiment: Tumor xenograft models; type: in vivo
[9] = tested on: FGF23 signaling; experiment: FGF23 signaling; settings: in contrast to the FGFR tyrosine kinase inhibitors
[10] = target: FcγRIIIa (Homo sapiens, UniProt P08637); experiment: Affinity for Fc receptor; type: binding; settings: compared to the fucosylated molecule
Chain of FcγRIIIa (P08637 17-254): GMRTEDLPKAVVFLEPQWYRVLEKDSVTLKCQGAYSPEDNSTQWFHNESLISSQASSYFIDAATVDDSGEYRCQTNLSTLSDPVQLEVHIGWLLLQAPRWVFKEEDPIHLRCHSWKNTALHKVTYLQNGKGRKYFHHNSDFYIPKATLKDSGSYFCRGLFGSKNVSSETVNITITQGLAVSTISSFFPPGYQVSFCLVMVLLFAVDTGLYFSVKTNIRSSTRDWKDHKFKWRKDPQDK
From the text: In the method of some embodiments, the anti-FGFR2 antibody comprises the heavy chain of SEQ ID NO: 2 and the light chain of SEQ ID NO: 3, and is afucosylated.

[11] = tested on: FGFR substrate-2 (FRS2); experiment: Downstream signaling: phosphorylation of FGFR substrate-2 (FRS2); type: cell-based
Description: The effect on downstream signaling was measured by examining phosphorylation of a protein that is directly phosphorylated by the FGFR2 protein, FGFR substrate-2 (FRS2).

[12] = Clinical safety of bemarituzumab (earlier studies, with mFOLFOX6); type: in vivo, human
From the text: Corneal events are very common with bemarituzumab with the most common adverse event being dry eye. Although nearly all of the events have been non-serious, grade 3 events such ulcerative keratitis and punctate keratitis which can lead to decreases in visual acuity have been observed. The majority of the corneal events typically resolve with treatment interruption or discontinuation and standard of care interventions for the corneal events. As such, it is contemplated that in some embodiments, subjects treated with bemarituzumab are further treated with ocular lubricants. The ocular lubricants may be administered prophylactically to reduce the risk of corneal events.

[13] = treatment with bemarituzumab, versus FGFR TKIs; cited from earlier work
[14] = Cohort A DL1: 15 mg/kg IV Q3W + 7.5 mg/kg C1D8 + CAPOX, N=6
[15] = Cohort A DL2: 22 mg/kg IV Q3W + 11 mg/kg C1D8 + CAPOX, N=4
[16] = Cohort C: 22 mg/kg IV Q3W + 11 mg/kg C1D8 + CAPOX + Nivo, N=6

CCCCCOC(=O)Nc1nc(=O)n([C@@H]2O[C@H](C)[C@@H](O)[C@H]2O)cc1F [capecitabine]
most common side effects ([1]; (30%)): diarrhea, hand-and-foot syndrome, nausea, vomiting, abdominal pain, fatigue/weakness, and hyperbilirubinemia

O=C1[O][Pt]2([NH][C@@H]3CCCC[C@H]3[NH]2)[O]C1=O [oxaliplatin]
most common side effects ([1]; (40%)): peripheral sensory neuropathy, neutropenia, thrombocytopenia, anemia, nausea, increase in transaminases and alkaline phosphatase, diarrhea, emesis, fatigue, and stomatitis

bemarituzumab
drug-drug interaction (DDI) with respect to PK between bemarituzumab and nivolumab ([2]; CAPOX background): No drug-drug interaction | Cycle 1 Cmax (median) [2, 14]: 360.8 µg/mL | Cycle 1 Ctrough (median) [2, 14]: 111.5 µg/mL | Cycle 2 Cmax (median) [2, 14]: 457.0 µg/mL | Cycle 2 Ctrough (median) [2, 14]: 86.6 µg/mL | Cycle 1 Cmax (median) [2, 15]: 333.8 µg/mL | Cycle 1 Ctrough (median) [2, 15]: 125.9 µg/mL | Cycle 2 Cmax (median) [2, 15]: 655.8 µg/mL | Cycle 2 Ctrough (median) [2, 15]: 71.1 µg/mL | Cycle 1 Cmax (median) [2, 16]: 381.4 µg/mL | Cycle 1 Ctrough (median) [2, 16]: 130.1 µg/mL | Cycle 2 Cmax (median) [2, 16]: 549.8 µg/mL | Cycle 2 Ctrough (median) [2, 16]: 133.0 µg/mL | safety findings [3]: no new safety findings | half-life ([4]; highest doses (100 to 150 mg/kg) tested): at least 8 days | half-life ([4]; lowest doses (1 to 1.5 mg/kg)): 19 h | PK behaviour ([4]; rats and cynomolgus monkeys): dose-dependent, nonlinear PK | reproductive and developmental toxicities [5]: Significant reproductive and developmental toxicities were observed at all dose levels | FGFR2b receptor level [6]: downregulates the receptor | FGFR2b phosphorylation ([6]; FGF ligand-stimulated, FGFR2b overexpressing gastric and breast cancer cell lines): inhibits; also recorded: blocks | cell proliferation [7]: inhibits | tumor growth ([8]; FGFR2b overexpressing gastric and breast xenograft models): inhibits tumor growth | anti-tumor activity ([8]; FGFR2b-overexpressing human tumor xenograft models, well-tolerated doses): dose-related anti-tumor activity with regression and complete responses | FGF23 signaling [9]: does not inhibit | affinity for the Fc receptor FcγRIIIa [10]: higher affinity | downstream signaling (FRS2 phosphorylation) [11]: inhibits downstream signaling | safety profile ([12]; human, in vivo): acceptable safety profile | identified risks ([12]; in combination with mFOLFOX6): corneal toxicity, infusion related reactions, gastrointestinal toxicity (stomatitis and mucosal inflammation), nail toxicity and increase in AST and ALT | hyperphosphatemia [13]: not associated with the hyperphosphatemia

— patent US20260250397A1, “TREATMENT OF GASTRIC CANCER” (AMGEN INC., priority 2022, published 2026)
